Laboratory results taken from article PMC6802120, “Concatenation of 14-3-3 with partner phosphoproteins as a tool to study their interaction” (Scientific Reports, 2019).
“And” between values parts separate entries of the source, which are not always exact repeats. Equal values may be shown once.

Tests used:
[1] = molecular target: 14-3-3σ∆C (C-terminally truncated human 14-3-3σ, residues 1-231) (human) (UniProt P31947); experiment: SEC; fluorescence-assisted size-exclusion spectrochromatography, Superdex 200 Increase 5/150, SEC buffer; detection at 230 nm absorbance and Trp fluorescence (excitation 298 nm, emission 360 nm); proteins alone and mixed
[2] = molecular target: the molecule itself; experiment: as above
[3] = molecular target: the molecule itself; experiment: SEC; same column and buffer as a1; higher loaded protein concentrations (second peak appears); apparent MW from column calibration; dimer to tetramer
[4] = molecular target: the molecule itself; experiment: SEC; Superdex 200 Increase 5/150, 0.45 ml/min; 20 mM Tris-HCl pH 7.6, 150 mM NaCl, 0.5 mM EDTA, 1 mM DTT, 3% glycerol; low loaded protein concentration; apparent MW from column calibration

stoichiometry N [1] | Molecule | stoichiometry N [2] | stoichiometry N [3] | stoichiometry N [4]
2 | 14-3-3σ∆C (C-terminally truncated human 14-3-3σ, residues 1-231) (from UniProt P31947 1-231) (domain or fragment) | – | – | –
– | pCH1 (phosphorylated peptidic chimera of 14-3-3σ(clu3)∆C with the HSPB6 phosphopeptide, residues 12-19) (other, human, phosphoserine at Ser16 of the HSPB6 peptide (phosphorylated by PKA), three extra residues left at the N-terminus after 3C cleavage; human 14-3-3σ, C-terminally truncated, residues 1-231, with the 'clu3' replacements; linker; also called phosphorylated CH1; 14-3-3-phosphopeptide chimera; not shown: His6, N-terminal, cleaved) GPHMERASLIQKAKLAEQAERYEDMAAFMKGAVEKGEELSCEERNLLSVAYKNVVGGQRAAWRVLSSIEQKSNEEGSAAAGPEVREYREKVETELQGVCDTVLGLLDSHLIKEAGDAESRVFYLKMKGDYYRYLAEVATGDDKKRIIDSARSAYQEAMDISKKEMPPTNPIRLGLALNFSVFHYEIANSPEEAISLAKTTFDEAMADLHTLSEDSYKDSTLIMQLLRDNLTLWTGSGSLRRASAPL | 4 and 2 | – | –
– | HSPB6 ACD (α-crystallin domain, residues 72-149) (domain or fragment, human, UniProt O14558 72-149, looked up, human small heat shock protein HSPB6, α-crystallin domain, residues 72-149; also called ACD dimer; isolated ACD) GHFSVLLDVKHFSPEEIAVKVVGEHVEVHARHEERPDEHGFVAREFHRRYRLPPGVDPAAVTSALSPEGVLSIQAAPA | 2 | – | –
– | 14-3-3-pB6 chimera (PKA-phosphorylated chimera of human 14-3-3σ(clu3)∆C and HSPB6 residues 12-153) (other, phosphoserine at Ser16 of the HSPB6 part (phosphorylated by PKA), three extra residues left at the N-terminus after 3C cleavage; human 14-3-3σ, C-terminally truncated (14-3-3σ∆C), residues 1-231, with the surface entropy reduction 'clu3' replacements; linker; the full chimera 'followed the same principles' as CH1; human small heat shock protein HSPB6, residues 12-153 (out of 160): Ser16 phosphopeptide region, rest of the NTD and the α-crystallin domain; Could …) GPHMERASLIQKAKLAEQAERYEDMAAFMKGAVEKGEELSCEERNLLSVAYKNVVGGQRAAWRVLSSIEQKSNEEGSAAAGPEVREYREKVETELQGVCDTVLGLLDSHLIKEAGDAESRVFYLKMKGDYYRYLAEVATGDDKKRIIDSARSAYQEAMDISKKEMPPTNPIRLGLALNFSVFHYEIANSPEEAISLAKTTFDEAMADLHTLSEDSYKDSTLIMQLLRDNLTLWTGSGSLRRASAPLPGLSAPGRLFDQRFGEGLLEAELAALCPTTLAPYYLRAPSVALPVAQVPTDPGHFSVLLDVKHFSPEEIAVKVVGEHVEVHARHEERPDEHGFVAREFHRRYRLPPGVDPAAVTSALSPEGVLSIQAAPASAQA | – | 4 | 2
– | unphosphorylated 14-3-3-B6 chimera (human 14-3-3σ(clu3)∆C and HSPB6 residues 12-153) (other, three extra residues left at the N-terminus after 3C cleavage; human 14-3-3σ, C-terminally truncated (14-3-3σ∆C), residues 1-231, with the 'clu3' replacements; linker; the full chimera 'followed the same principles' as CH1; human small heat shock protein HSPB6, residues 12-153 (out of 160); also called unphosphorylated chimera; unphosphorylated version; source: E. coli BL21(DE3) without PKA, …) GPHMERASLIQKAKLAEQAERYEDMAAFMKGAVEKGEELSCEERNLLSVAYKNVVGGQRAAWRVLSSIEQKSNEEGSAAAGPEVREYREKVETELQGVCDTVLGLLDSHLIKEAGDAESRVFYLKMKGDYYRYLAEVATGDDKKRIIDSARSAYQEAMDISKKEMPPTNPIRLGLALNFSVFHYEIANSPEEAISLAKTTFDEAMADLHTLSEDSYKDSTLIMQLLRDNLTLWTGSGSLRRASAPLPGLSAPGRLFDQRFGEGLLEAELAALCPTTLAPYYLRAPSVALPVAQVPTDPGHFSVLLDVKHFSPEEIAVKVVGEHVEVHARHEERPDEHGFVAREFHRRYRLPPGVDPAAVTSALSPEGVLSIQAAPASAQA | – | 4 | 2
